For assay [1], the target named is CD3 on Jurkat cells (UniProt P07766). The assay is described as follows: flow cytometry, culture supernatant on Jurkat cells (negative control).
Assay [2] has the same target. The assay is described as follows: flow cytometry, culture supernatant on Jurkat cells.
The target in another assay is T1, CD3-His蛋白(MP-5) (UniProt P07766 23-126).
T1 construct: Immunogen and panning antigen; The Octet method speaks only of 'CD3蛋白' in solution at 100 nM; also called CD3蛋白; not shown: His tag
T1 sequence (P07766 23-126): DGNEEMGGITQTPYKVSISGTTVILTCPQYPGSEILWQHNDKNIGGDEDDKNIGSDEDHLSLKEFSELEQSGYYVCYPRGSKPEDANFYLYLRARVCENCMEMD
Briefly: BLI (Octet RED96), sdAb-SASA from expression medium captured on BSA-coated biosensor, 100 nM CD3 in solution, 1:1 Langmuir fit, 30°C.

In turn, NC-sdAb(相同形式的非相关性sdAb) (VHH) came in with an MFI with CD3 on Jurkat cells [1] of 115 MFI.

B1: 抗CD3单域抗体 C58 (VHH)
VHH: QVQLQESGGGLVQPGGSLRLSCAASGFTLDYYAIGWFRQAPGKEREGVSCISSGDGTTYYADSVKGRFTISRDNAKNTVYLQMNSLKPEDTAVYYCAAARTRKVISIATMTLDPKVFASWGQGTQVTVSS
notes: Llama sdAb from a phage library; Tested as unpurified sdAb-SASA protein in E. coli expression medium / culture supernatant (FASEBA format); 3 in its text; also called sdAb C58; not shown: SASA fusion partner of the pFASEBA vector (sdAb-SASA protein in the expression medium)
In turn, B1 registered an MFI with CD3 on Jurkat cells [2] of 245 MFI. The same molecule had a koff with CD3-His蛋白(MP-5) of 3.91e-05 s⁻¹.

B2: 抗CD3单域抗体 C57 (VHH)
VHH: QVQLQESGGGLVQAGDSLRLSCAASGRTFSSYVMGWFRQAPGKEREFVAAIRWSGGSTYYADSVKGRFTISRDNAKNTMYLQMNSLKPEDTAVYYCAAAQKINTDVTGAYWGQGTQVTVSS
notes: Llama sdAb from a phage library; Tested as unpurified sdAb-SASA protein in E. coli expression medium / culture supernatant (FASEBA format); 1 in its text; also called sdAb C57; not shown: SASA fusion partner of the pFASEBA vector (sdAb-SASA protein in the expression medium)
In the assay with CD3 on Jurkat cells [2], B2 displayed an MFI of 213 MFI. The dissociation rate constant (koff) with CD3-His蛋白(MP-5) turned out to be 4.6e-05 s⁻¹.

For the origin of these results see patent CN106084048A (UNIV SUN YAT SEN, dated 2016).
